The values that follow come from patent publication US20060193829A1.

Assay [1] deals with REFACTO® (recombinant factor VIII-like polypeptide consisting of amino acids 1-743 and 1638 through 2332 of human factor VIII) (human) (UniProt P00451). The assay can be described thus: batch binding to peptide beads; target in fraction by sandwich ELISA. (ELISA stands for enzyme-linked immunosorbent assay.)
Assay [2] has the same target. The assay can be described thus: affinity column, peptide on Toyopearl Formyl 650-M; target in fraction by RP-HPLC.
Assay [3] has the same target. The experiment in a line: affinity column, peptide on Toyopearl Formyl 650-M; target in fraction by activity assay.
The target is the same in assay [4]. The experiment in a line: batch binding to regenerated peptide beads; target in fraction by sandwich ELISA.
For assay [5], the target named is native human factor VIII (nhfVIII) (human) (UniProt P00451). Described as above.

Positions of bridges follow the written chain, without caps; N, C: chain ends. No end group written: not given here. *: point of attachment. NHNH2 = NN*

native human factor VIII (nhfVIII) (human), sequence (P00451 20-2351): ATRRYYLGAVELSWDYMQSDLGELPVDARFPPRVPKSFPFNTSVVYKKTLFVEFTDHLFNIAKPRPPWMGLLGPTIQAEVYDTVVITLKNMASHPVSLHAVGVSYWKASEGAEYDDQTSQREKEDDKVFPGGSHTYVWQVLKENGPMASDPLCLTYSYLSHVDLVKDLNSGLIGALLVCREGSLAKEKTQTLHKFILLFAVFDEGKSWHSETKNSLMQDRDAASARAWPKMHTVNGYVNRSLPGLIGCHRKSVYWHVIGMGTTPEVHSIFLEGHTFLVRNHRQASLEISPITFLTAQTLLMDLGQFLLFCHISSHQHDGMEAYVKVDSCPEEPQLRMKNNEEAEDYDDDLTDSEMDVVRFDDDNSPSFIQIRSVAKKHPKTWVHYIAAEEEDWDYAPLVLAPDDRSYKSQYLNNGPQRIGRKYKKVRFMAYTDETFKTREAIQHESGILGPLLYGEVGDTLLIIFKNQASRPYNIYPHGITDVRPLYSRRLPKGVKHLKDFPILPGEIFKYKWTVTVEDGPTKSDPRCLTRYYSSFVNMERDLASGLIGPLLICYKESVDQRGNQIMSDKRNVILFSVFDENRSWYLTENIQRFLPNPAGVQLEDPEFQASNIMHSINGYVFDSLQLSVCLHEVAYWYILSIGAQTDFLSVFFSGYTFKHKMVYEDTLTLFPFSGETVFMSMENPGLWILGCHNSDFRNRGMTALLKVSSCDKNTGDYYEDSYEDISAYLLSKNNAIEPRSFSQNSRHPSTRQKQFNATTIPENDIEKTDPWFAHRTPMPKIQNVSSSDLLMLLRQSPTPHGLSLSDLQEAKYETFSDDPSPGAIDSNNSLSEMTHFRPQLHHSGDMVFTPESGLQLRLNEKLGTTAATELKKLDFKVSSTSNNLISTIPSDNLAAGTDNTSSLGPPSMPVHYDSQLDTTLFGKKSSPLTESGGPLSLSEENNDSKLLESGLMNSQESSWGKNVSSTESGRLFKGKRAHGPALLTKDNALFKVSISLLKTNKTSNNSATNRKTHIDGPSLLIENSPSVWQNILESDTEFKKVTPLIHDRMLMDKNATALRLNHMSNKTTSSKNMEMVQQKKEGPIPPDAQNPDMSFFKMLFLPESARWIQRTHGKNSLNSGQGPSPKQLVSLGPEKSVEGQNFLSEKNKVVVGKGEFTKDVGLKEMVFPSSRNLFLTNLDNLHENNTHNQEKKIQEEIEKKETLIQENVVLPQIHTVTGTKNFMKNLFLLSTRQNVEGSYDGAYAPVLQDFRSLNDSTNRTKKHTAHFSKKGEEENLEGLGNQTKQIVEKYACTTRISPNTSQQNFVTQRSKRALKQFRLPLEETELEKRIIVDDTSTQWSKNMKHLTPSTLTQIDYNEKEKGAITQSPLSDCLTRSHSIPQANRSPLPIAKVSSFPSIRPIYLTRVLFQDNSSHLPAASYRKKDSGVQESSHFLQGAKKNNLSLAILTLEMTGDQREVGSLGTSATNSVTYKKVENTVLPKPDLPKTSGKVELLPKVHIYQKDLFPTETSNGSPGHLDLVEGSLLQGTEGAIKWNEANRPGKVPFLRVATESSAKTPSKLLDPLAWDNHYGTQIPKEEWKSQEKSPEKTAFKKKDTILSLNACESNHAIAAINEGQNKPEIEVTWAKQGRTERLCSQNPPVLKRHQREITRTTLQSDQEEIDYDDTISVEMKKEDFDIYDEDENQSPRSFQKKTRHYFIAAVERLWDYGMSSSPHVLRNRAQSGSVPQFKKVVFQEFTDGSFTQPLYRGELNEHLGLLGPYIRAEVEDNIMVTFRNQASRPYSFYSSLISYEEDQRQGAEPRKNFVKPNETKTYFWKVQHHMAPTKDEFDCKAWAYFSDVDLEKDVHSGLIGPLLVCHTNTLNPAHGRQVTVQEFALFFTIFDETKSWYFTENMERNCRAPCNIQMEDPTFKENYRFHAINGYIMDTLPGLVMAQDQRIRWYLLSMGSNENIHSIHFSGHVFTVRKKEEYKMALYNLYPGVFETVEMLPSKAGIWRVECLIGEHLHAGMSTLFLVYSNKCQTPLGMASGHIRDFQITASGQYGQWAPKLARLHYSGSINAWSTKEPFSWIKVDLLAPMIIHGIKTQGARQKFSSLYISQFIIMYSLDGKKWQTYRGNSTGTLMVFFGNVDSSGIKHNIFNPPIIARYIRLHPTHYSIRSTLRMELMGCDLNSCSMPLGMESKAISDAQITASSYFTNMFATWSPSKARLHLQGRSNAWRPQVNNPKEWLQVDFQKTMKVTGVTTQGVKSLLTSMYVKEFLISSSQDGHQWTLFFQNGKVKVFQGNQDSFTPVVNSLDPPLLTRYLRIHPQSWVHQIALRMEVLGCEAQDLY
REFACTO® (recombinant factor VIII-like polypeptide consisting of amino acids 1-743 and 1638 through 2332 of human factor VIII) (human), sequence (P00451 20-762, chain 1 of 2): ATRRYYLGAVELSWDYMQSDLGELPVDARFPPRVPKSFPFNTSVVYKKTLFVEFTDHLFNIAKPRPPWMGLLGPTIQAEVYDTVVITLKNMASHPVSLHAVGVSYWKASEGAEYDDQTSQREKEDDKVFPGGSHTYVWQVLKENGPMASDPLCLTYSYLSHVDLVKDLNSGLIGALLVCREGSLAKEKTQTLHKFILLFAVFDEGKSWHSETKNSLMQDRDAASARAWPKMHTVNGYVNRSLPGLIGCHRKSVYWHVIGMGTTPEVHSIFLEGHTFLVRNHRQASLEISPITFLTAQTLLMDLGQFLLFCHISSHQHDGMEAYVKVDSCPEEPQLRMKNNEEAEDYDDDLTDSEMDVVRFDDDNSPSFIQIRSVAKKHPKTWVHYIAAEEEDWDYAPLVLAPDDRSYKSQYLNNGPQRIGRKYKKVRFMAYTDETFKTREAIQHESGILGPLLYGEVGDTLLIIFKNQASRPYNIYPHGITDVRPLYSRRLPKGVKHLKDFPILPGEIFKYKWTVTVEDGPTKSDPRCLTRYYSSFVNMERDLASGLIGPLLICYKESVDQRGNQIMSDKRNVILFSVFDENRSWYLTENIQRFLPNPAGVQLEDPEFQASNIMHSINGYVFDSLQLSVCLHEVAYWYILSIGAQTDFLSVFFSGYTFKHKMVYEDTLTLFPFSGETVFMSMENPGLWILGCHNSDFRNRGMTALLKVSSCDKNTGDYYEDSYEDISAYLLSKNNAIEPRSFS
REFACTO® (recombinant factor VIII-like polypeptide consisting of amino acids 1-743 and 1638 through 2332 of human factor VIII) (human), sequence (P00451 1657-2351, chain 2 of 2): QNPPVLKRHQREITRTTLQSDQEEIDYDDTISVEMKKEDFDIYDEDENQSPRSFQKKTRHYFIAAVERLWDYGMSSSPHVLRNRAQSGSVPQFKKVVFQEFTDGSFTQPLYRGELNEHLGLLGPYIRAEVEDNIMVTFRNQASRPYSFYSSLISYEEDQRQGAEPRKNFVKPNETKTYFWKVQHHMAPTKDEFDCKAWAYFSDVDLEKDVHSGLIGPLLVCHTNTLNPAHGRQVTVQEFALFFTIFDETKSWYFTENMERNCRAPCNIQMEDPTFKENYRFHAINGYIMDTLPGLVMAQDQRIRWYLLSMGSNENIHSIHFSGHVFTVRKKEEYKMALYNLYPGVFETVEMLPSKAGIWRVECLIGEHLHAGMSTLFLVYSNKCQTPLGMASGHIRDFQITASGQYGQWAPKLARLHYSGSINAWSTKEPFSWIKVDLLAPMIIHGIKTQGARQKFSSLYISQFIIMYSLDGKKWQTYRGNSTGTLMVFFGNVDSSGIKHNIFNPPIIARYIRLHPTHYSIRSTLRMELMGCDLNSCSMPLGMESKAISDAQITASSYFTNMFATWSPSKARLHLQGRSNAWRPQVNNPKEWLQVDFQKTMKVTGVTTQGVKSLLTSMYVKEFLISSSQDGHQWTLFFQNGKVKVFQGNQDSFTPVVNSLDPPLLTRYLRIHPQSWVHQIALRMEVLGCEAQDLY

B1: Affinity ligand CS-458 (peptide)
peptide: AEGTGDFCWVFAFDHCHDPGPEGGGS-NHNH2
modifications: disulfide 8-16 (inferred)
Regarding B1, in assay [1], the % of Input Recovered in Eluate worked out at 47%, the % of Input Recovered in Unbound was 20% and the % of Input Recovered in Wash worked out at 10%. In assay [2], the % recovery, Elution A amounted to 54.3%; the % recovery, Elution B is 0%; the % recovery, Flow was 1.8%; the % recovery, pH2 was determined as 0%. Moreover, in assay [3], the % recovery, Elution A came out at 55.6% and the % recovery, Flow stood at 1.4%. Further, in assay [4], the % of Total Recovered in Eluate worked out at 27%, the % of Total Recovered in Unbound came to 59% and the % of Total Recovered in Wash was 14%. In assay [5], this molecule displayed a % of Total Recovered in Eluate of 39%, a % of Total Recovered in Unbound of 48% and a % of Total Recovered in Wash of 13%.
